Assay type in all cases: in vivo
In experiment [1] the test system is MOLP-8 human multiple myeloma cells. The note with it: Balb/c nude mice; huN901-DM1 200 μg/kg DM1 i.v. single injection day 22; melphalan 12 mg/kg i.p. single injection day 23; combination same doses. From the text: (§1) Mice were inoculated with human multiple myeloma tumor cell lines and allowed to become established (average tumor size of about 100 mm^3) prior to treatment. Conjugate dosing is described based on DM1 concentration. Efficacy is reported as both the % of tumor growth for treated vs. control (% T/C) and log cell kill (LCK) determined from the tumor doubling time and the tumor growth delay due to the treatment.
(§2) Tumor growth was monitored by measuring tumor size twice per week. Tumor size was calculated with the formula: length×width×height×½.

For experiment [2], the system named is OPM2 human multiple myeloma cells. As to the kind of experiment: huN901-DM1 and lenalidomide in established subcutaneous OPM2 multiple myeloma xenografts. The conditions noted are these: combination same doses; for LCK / T/C: SCID mice, lenalidomide 100 mg/kg i.p. days 16-20, 23-27; for LCK: huN901-DM1 200 μg/kg i.v. day 16; for T/C: huN901-DM1 200 μg/kg i.v. single injection day 16. The procedure:
as §1
The anti-tumor effect of a combination of huN901-DM1 and lenalidomide was evaluated in an established subcutaneous xenograft model of multiple myeloma. SCID mice (20 animals) were inoculated with OPM2 human multiple myeloma cells (1×10^7 cells/animal) injected subcutaneously into the right shoulder of the mice. When the tumors reached about 130 mm^3 in size (16 days after tumor cell inoculation), the mice were randomly divided into four groups (5 animals per group). One group of mice was treated with the single agent huN901-DM1 (200 μg/kg, day 16 post tumor cell inoculation) administered intravenously. […] A third group was treated with a combination of huN901-DM1 plus lenalidomide using the same doses, schedules and administration routes used for single agent treated groups. A control group of animals received PBS administered intravenously (day 16 post tumor cell inoculation). Tumor growth was monitored by measuring tumor size twice per week. Tumor size was calculated with the formula: length×width×height×½.

The test system of experiment [3] is MOLP-8 human multiple myeloma cells. As to the kind of experiment: huN901-DM1 and thalidomide in established subcutaneous MOLP-8 multiple myeloma xenografts. The conditions noted are these: SCID mice; huN901-DM1 100 μg/kg, thalidomide 200 mg/kg, as single agents or combined.
Text: as §1, §2

Experiment [4] concerns OPM2 human multiple myeloma cells. The experiment is described as follows: huN901-DM1 and bortezomib in established subcutaneous OPM2 multiple myeloma xenografts. The conditions noted are these: SCID mice.
Text: as §1
The anti-tumor effect of a combination of huN901-DM1 and bortezomib (Velcade, Millennium Pharmaceuticals) was evaluated in an established subcutaneous xenograft model of multiple myeloma. SCID mice (36 animals) were inoculated with OPM2 human multiple myeloma cells (1×10^7 cells/animal) injected subcutaneously into the right shoulder of the mice. […] Two groups of mice were treated with the single agent huN901-DM1 at DM1 doses of 100 μg/kg and 200 μg/kg, respectively (day 12 post tumor cell inoculation) administered intravenously. A third group of mice was treated with the single agent bortezomib at a dose of 1 mg/kg (days 13 and 16 post tumor cell inoculation), administered intravenously. Two groups were treated with combinations of huN901-DM1 (100 μg/kg or 200 μg/kg) plus bortezomib using the same doses, schedules and administration routes used for single agent treated groups. A control group of animals received PBS administered intravenously (day 12 post tumor cell inoculation). Tumor growth was monitored by measuring tumor size twice per week. Tumor size was calculated with the formula: length×width×height×½.

Experiment [5] concerns H929 human multiple myeloma cells. The experiment is described as follows: huN901-DM1 and bortezomib in H929 multiple myeloma large tumor xenografts. The note with it: for activity according to NCI standards: huN901-DM1 50 μg/kg, bortezomib 0.5 mg/kg, as single agents or combined. The procedure:
as §1
The anti-tumor effect of a combination of huN901-DM1 and bortezomib was evaluated in an established subcutaneous xenograft model of multiple myeloma. SCID mice (54 animals) were inoculated with H929 human multiple myeloma cells (1×10^7 cells/animal) injected subcutaneously into the right shoulder of the mice. […] Two groups of mice were treated with the single agent huN901-DM1 at DM1 doses of 50 μg/kg and 100 μg/kg, respectively (day 34 post tumor cell inoculation) administered intravenously. Two groups of mice were treated with the single agent bortezomib at a 0.5 mg/kg low dose and 1 mg/kg high dose (days 35 and 38 post tumor cell inoculation) administered intravenously. Four combination groups were evaluated, with combinations of each dose of huN901-DM1 plus low- or high-dose bortezomib using the same schedules used for single agent treated groups. A control group of animals received PBS administered intravenously (day 34 post tumor cell inoculation). Tumor growth was monitored by measuring tumor size twice per week. Tumor size was calculated with the formula: length×width×height×½.

In experiment [6] the test system is MOLP-8 human multiple myeloma cells. As to the kind of experiment: Triple combination huN901-DM1, lenalidomide plus low-dose dexamethasone in MOLP-8 xenografts. How it is done: Lenalidomide (100 mg/kg, qd×5×2) was administered at days 1-5 and 8-12. […]
as §1
The anti-tumor effect of a triple-combination of huN901-DM1 and lenalidomide plus low-dose dexamethasone was evaluated in an established subcutaneous xenograft model of multiple myeloma. SCID mice were inoculated with MOLP-8 human multiple myeloma cells (1.5×10^7 cells/animal) injected subcutaneously into the right shoulder of the mice. […] Treatments were initiated on day 13 post inoculation, indicated as day 1 of treatment. […] A second group of mice was treated with the combination of lenalidomide/low-dose dexamethasone (lenalidomide at 100 mg/kg, administered as a suspension in 1% carboxymethylcellulose/PBS by intraperitoneal injection on days 1-5, 8-12; dexamethasone at 1.5 mg/kg, administered by subcutaneous injection on days 1 and 8). A third group was treated with the triple-combination of huN901-DM1 plus lenalidomide/dexamethasone using the same doses, schedules and administration routes used for individual treatment groups. A control group of animals received PBS administered intravenously (days 1 and 8). Tumor growth was monitored by measuring tumor size twice per week. Tumor size was calculated with the formula: length×width×height×½.

The mark [7] stands for this setting: bortezomib single agent, high dose 1.0 mg/kg.
[8] abbreviates: huN901-DM1 200 μg/kg, lenalidomide 100 mg/kg.

One may read the T/C as the ratio of treated to control.

Regarding `N[C@@H](Cc1ccc(N(CCCl)CCCl)cc1)C(=O)O` [melphalan, reference compound], the tumor growth delay in experiment [1] turned out to be 14 days.

Regarding `Nc1cccc2c1CN(C1CCC(=O)NC1=O)C2=O` (stereo not shown) [lenalidomide, reference compound], in experiment [2], the LCK amounted to 0.9 and the T/C was 28%.

Consider `O=C1CCC(N2C(=O)c3ccccc3C2=O)C(=O)N1` (stereo not shown) [thalidomide, reference compound], for which, in experiment [3], the “activity according to NCI standards” value is “inactive”.

In the case of `CC(C)C[C@H](NC(=O)[C@H](Cc1ccccc1)NC(=O)c1cnccn1)B(O)O` [bortezomib], the “tumor-free mice at day 91” value in experiment [4] (bortezomib single agent 1 mg/kg i.v. days 13 and 16) is reported as “no tumor-free mice”. In experiment [5] (setting [7]), the T/C worked out at 11%, the outcome was active and the “tumor-free mice at day 119” value is 1 of 6. Further, in experiment [5], the “activity according to NCI standards” value is “inactive”.

B1: huN901-DM1: humanized antibody N901-maytansinoid conjugate (huN901-DM1); N901 binds to CD56 (conjugate, chains of the INN, looked up)
VH: QVQLVESGGGVVQPGRSLRLSCAASGFTFSSFGMHWVRQAPGKGLEWVAYISSGSFTIYYADSVKGRFTISRDNSKNTLYLQMNSLRAEDTAVYYCARMRKGYAMDYWGQGTLVTVSS
VL: DVVMTQSPLSLPVTLGQPASISCRSSQIIIHSDGNTYLEWFQQRPGQSPRRLIYKVSNRFSGVPDRFSGSGSGTDFTLKISRVEAEDVGVYYCFQGSHVPHTFGQGTKVEIK
modifications: DM1 maytansinoid conjugate
B1: the “tumor-free mice at day 91” value in experiment [4] (huN901-DM1 100 μg/kg i.v. day 12, alone or plus bortezomib 1 mg/kg i.v. days 13 and 16) is recorded as 1 of 6; in experiment [4] (huN901-DM1 200 μg/kg i.v. day 12, alone or plus bortezomib 1 mg/kg i.v. days 13 and 16), 3 of 6. The “activity according to NCI standards” value in experiment [3] and in experiment [5] was “inactive” throughout. The activity result in experiment [6] (MOLP-8 tumors, doses as in Example 7) is on record as “active”; in experiment [2] (setting [8]), “active”. The T/C in experiment [6] (SCID mice, huN901-DM1 150 ng/kg, qw×2 i.v., lenalidomide 100 mg/kg i.p. days 1-5, 8-12, dexamethasone 1.5 mg/kg s.c. days 1 and 8) is 33%; in experiment [2], 26%. Besides, the LCK in experiment [6] (SCID mice, huN901-DM1 150 μg/kg, qw×2 i.v., lenalidomide 100 mg/kg i.p. days 1-5, 8-12, dexamethasone 1.5 mg/kg s.c. days 1 and 8) amounted to 0.5; in experiment [2], 0.9. Moreover, the regressions result in experiment [6] (huN901-DM1 alone or lenalidomide/dexamethasone groups) is “no regressions”. The “tumor-free mice at the end of the study” value in experiment [2] (setting [8]) is listed as “no tumor-free survivors”. Moreover, the tumor growth delay in experiment [1] is recorded as 11 days.

The values are drawn from patent publication US8563700B2, “Synergistic effects” (ImmunoGen, Inc., priority 2008, dated 2013).
